Reference: patent US20210032313A1 (Daiichi Sankyo, published 2021)

T1: mouse KLK5 (mouse)
T1 chain: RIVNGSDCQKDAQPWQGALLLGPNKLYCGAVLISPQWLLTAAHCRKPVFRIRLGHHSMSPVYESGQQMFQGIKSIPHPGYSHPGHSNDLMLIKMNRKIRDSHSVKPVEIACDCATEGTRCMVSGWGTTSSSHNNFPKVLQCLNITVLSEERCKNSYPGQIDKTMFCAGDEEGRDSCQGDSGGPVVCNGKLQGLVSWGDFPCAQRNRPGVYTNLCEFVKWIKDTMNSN

T2: mouse KLK14 (mouse, UniProt Q8CGR5 24-250)
T2 sequence: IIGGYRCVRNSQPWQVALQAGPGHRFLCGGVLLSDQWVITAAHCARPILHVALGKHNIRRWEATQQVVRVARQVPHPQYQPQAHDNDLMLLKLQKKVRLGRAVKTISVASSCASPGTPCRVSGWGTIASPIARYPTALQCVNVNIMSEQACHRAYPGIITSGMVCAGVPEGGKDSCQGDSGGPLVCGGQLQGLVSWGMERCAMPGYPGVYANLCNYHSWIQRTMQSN

T3: KLK12 (human, UniProt Q9UKR0)
T3 construct: commercial enzyme (R&D Systems, 3095-SE); 0.1 µg/mL in the assay; substrate Boc-Val-Pro-Arg-AMC 100 µM; also called Human KLK12; hKLK12
T3 sequence (protease, looked up): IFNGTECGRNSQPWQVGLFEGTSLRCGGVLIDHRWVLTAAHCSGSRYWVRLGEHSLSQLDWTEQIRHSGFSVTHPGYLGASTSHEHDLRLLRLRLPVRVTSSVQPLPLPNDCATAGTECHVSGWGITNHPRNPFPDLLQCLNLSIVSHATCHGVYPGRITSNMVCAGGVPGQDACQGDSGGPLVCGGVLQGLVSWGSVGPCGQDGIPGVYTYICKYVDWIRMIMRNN

T4: human KLK5 (human, UniProt Q9Y337 67-293)
T4 sequence: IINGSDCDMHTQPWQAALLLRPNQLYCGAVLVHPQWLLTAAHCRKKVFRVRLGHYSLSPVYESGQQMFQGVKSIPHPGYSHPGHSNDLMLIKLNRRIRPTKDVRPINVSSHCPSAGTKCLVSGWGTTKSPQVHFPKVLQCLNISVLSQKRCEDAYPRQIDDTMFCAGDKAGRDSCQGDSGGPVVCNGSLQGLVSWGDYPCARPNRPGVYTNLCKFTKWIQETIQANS

T5: human KLK14 (human, UniProt Q9P0G3 25-251)
T5 sequence: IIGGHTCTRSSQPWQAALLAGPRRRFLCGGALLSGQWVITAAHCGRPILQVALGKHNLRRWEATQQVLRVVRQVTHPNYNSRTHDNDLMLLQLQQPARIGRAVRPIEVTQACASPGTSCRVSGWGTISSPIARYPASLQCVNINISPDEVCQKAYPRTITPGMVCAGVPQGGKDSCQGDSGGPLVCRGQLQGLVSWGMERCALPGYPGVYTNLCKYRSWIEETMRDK


Assays:
mouse KLK5 = molecular target: T1, mouse KLK5; assay: cell-based or functional assay
mouse KLK14 = molecular target: T2, mouse KLK14; assay: cell-based or functional assay
mouse KLK7 = mouse KLK7 (mouse, UniProt Q91VE3 26-249); assay: cell-based or functional assay
KLK4 = molecular target: T6, KLK4 (human, UniProt Q9Y5K2); assay: fluorogenic peptide substrate cleavage, 1 µM inhibitor
T6 construct: commercial enzyme (R&D Systems, 1719-SE); 1 µg/mL in the assay; substrate Boc-Val-Pro-Arg-AMC 100 µM; also called Human KLK4; hKLK4
Description: FIG. 3F includes graphs to evaluate the cross-reactivity of each inhibitory peptide with proteases, using the degradation of a peptide substrate as an index. For evaluating the Human KLK1 inhibitory activity, hKLK1 (R&D Systems, Inc., 2337-SE) with a final concentration of 0.1 μg/mL and a substrate peptide Pro-Phe-Arg-MCA (PEPTIDE […], INC., 3096-v) with a final concentration of 100 μM were used. For evaluating the Human KLK2 inhibitory activity, hKLK2 (R&D Systems, Inc., 4104-SE) with a final concentration of 2 μg/mL and a substrate peptide Pro-Phe-Arg-MCA (PEPTIDE […], INC., 3096-v) with a final concentration of 100 μM were used. For evaluating the Human KLK4 inhibitory activity, hKLK4 (R&D Systems, Inc., 1719-SE) with a final concentration of 1 μg/mL and a substrate peptide Boc-Val-Pro-Arg-AMC (R&D Systems, Inc., ES011) with a final concentration of 100 μM were used.
(§1) The specificities for other proteases were evaluated using the degradation of a substrate peptide as an index. As in the method described in (3-1), 25 μL each of a protease and a sample diluted with an assay buffer were mixed (to a final concentration of sample of 1 μM), followed by a reaction at 37° C. for 20 minutes. Thereafter, 50 μL of a substrate diluted with an assay buffer was added thereto, and the fluorescence signal was measured using Enspire (PerkinElmer). An assay buffer (50 mM Tris, 150 mM NaCl, pH 8.0) was used for the evaluation of the protease activity, and a PROTEOSAVE® SS96F black plate (Sumitomo Bakelite Co., Ltd.) was used for the reaction and the measurement. The combinations of the protease and the substrate used for the evaluation of the specificity were as follows.

KLK12 = molecular target: T3, KLK12; assay: as above
Description: FIG. 3G includes graphs to evaluate the cross-reactivity of each inhibitory peptide with proteases, using the degradation of a peptide substrate as an index. For evaluating the Human KLK7 inhibitory activity, hKLK7 with a final concentration of 1 μg/mL and a substrate peptide Mca-Arg-Pro-Lys-Pro-Val-Glu-Nval-Trp-Arg-Lys (Dnp)-NH₂ (R&D Systems, Inc., ES002) with a final concentration of 20 μM were used. For evaluating the Human KLK8 inhibitory activity, hKLK8 (UniProt: 060259, prepared by the inventors) with a final concentration of 5 nM and a substrate peptide Boc-Val-Pro-Arg-AMC (R&D Systems, Inc., ES011) with a final concentration of 100 μM were used. For evaluating the Human KLK12 inhibitory activity, hKLK12 (R&D Systems, Inc., 3095-SE) with a final concentration of 0.1 μg/mL and a substrate peptide Boc-Val-Pro-Arg-AMC (R&D Systems, Inc., ES011) with a final concentration of 100 μM were used.
as §1

human KLK5 = molecular target: T4, human KLK5; assay: cell-based or functional assay
human KLK7 = human KLK7 (human, UniProt P49862 30-253); assay: cell-based or functional assay
human KLK14 = molecular target: T5, human KLK14; assay: cell-based or functional assay

Chain of human KLK7 (P49862 30-253): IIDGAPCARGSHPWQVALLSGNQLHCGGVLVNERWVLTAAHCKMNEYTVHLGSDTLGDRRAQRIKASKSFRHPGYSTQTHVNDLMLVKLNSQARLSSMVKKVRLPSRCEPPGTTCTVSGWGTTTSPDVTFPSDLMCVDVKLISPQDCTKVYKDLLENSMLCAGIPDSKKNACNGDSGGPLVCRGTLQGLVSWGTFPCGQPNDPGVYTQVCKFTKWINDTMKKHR
Chain of mouse KLK7 (Q91VE3 26-249): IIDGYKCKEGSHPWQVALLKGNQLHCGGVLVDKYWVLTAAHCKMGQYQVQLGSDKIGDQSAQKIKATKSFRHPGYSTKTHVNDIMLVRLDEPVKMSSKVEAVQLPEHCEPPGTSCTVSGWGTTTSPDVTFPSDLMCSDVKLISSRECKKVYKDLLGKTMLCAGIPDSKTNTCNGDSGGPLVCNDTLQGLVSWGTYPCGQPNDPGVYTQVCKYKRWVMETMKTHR
T6 sequence (Q9Y5K2 31-254 limits assumed): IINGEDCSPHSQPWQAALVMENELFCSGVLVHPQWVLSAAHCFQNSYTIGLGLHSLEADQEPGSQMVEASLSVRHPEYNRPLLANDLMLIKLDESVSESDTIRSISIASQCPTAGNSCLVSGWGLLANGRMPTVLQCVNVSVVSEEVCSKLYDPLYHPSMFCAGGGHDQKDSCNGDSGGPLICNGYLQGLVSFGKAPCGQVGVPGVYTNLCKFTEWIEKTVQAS

Row | IC50(nM) for mKLK5 (mouse KLK5) [nM] | IC50(nM) for mKLK14 (mouse KLK14) [nM] | IC50(nM) for mKLK7 (mouse KLK7) [nM] | binding result (KLK4) | binding result (KLK12) | IC50(nM) for hKLK5 (human KLK5) [nM] | IC50(nM) for hKLK7 (human KLK7) [nM] | IC50(nM) for hKLK14 (human KLK14) [nM] | Binder
1 | < 0.5 | 40 | 181 | binds | binds | 6.8 | > 1000 | 72 | KLK5/KLK14 inhibitory peptide K51069 (SPINK2 mutant peptide made in E. coli) GPQFGLFSKYRTPNCSQVVETYCNRDYDPVCGSDMSTYANECTLCMKIREGGHNIKIIRNGPCGG
2 | < 0.5 | 108 | 248 | binds | binds | 6.8 | > 1000 | 17 | KLK5/KLK14 inhibitory peptide K50015 (SPINK2 mutant peptide made in E. coli) GPQFGLFSKYRTPNCYDTTTHYCSREYDPVCGSDMSTYANECTLCMKIREGGHNIKIIRNGPCGG
